In the supplement of paper PMC10567573:
± gives the standard deviation.

Test: protein stability index of a GFP-peptide fusion (GPS, HEK-293T) (PSI 1-6); higher = more stable
[1] = treatment: DMSO, c terminus: a fixed tail appended
[2] = treatment: MLN4924 1 uM, 8 h, c terminus: a fixed tail appended
[3] = treatment: DMSO, c terminus: native
[4] = treatment: MLN4924 1 uM, 8 h, c terminus: native
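Note: 24-mer peptide tiles fused after GFP, lentivirally expressed, FACS-sorted into six equal bins by GFP/DsRed ratio, decoded by Illumina sequencing, PSI is the read-weighted mean bin number.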

Sequence | protein stability index [1] | protein stability index [2] | protein stability index [3] | protein stability index [4]
TREGFTLLHLAVNSNTPVDDFHTN [FEM1B] | 2.85 ± 0.17 | 2.95 ± 0.19 |  | 
SALGPPPAASNSSDLFDLMGSSQA [CLINT1] | 4.7 ± 0.22 | 4.49 ± 0.2 |  | 
PPASARRLSVPRDSACDESSCIPK [IRX6] | 5.33 ± 0.16 | 5.31 ± 0.14 |  | 
RHMEAVKAQLLEQAQGQLRELLDR [SOAT2] | 3.07 ± 0.37 | 3.08 ± 0.086 |  | 
DQEMARDLVERALYSMECAFHPLF [TCF25] | 2.35 ± 0.34 | 2.09 ± 0.35 |  | 
LFNLSNFLDKSGSHGYDMSTFIRR [SNAP91] | 2.62 ± 0.62 | 2.25 ± 0.35 |  | 
SNYIFVAIFWIVFLLLIVFYTAIT [P2RY14] | 2.26 ± 0.26 | 2.1 ± 0.41 |  | 
AGDEAVFAQYDSFHVDSAAEYYRL [TNXB] | 3.51 ± 0.38 | 3.68 ± 0.13 |  | 
EGRFWKSKNEDRGEEEAESSISST [ZMYND11] | 5.65 ± 0.2 | 5.71 ± 0.13 |  | 
AIGVSISLSSIATCVYIAEIAPQH [SLC2A12] | 3.17 ± 0.13 | 3.34 ± 0.38 |  | 
LKTSNLPEELRKVFITYSMDTAME [TRAF3IP2] | 2.41 ± 0.28 | 2.43 ± 0.56 |  | 
NISGLRFETQLKTLCQFPETLLGD [KCNA3] | 2.89 ± 0.26 | 3.03 ± 0.23 |  | 
QFEANGYFFKRPYPFVLFYSKFHG [KMT2E] |  | 2.91 ± 1.9 |  | 
THTQIDQQPPRLLIVHIALPSWAD [M1AP] | 2.75 ± 0.59 | 2.68 ± 0.54 |  | 
GSRLCLYEDGTELTEDYFPSVPDN [DFFB] | 4.44 ± 0.44 | 4.66 ± 0.45 |  | 
LNAYMKSLLSLPVWVLMDEDVRIF [NCF4] | 3.17 ± 0.86 | 2.54 ± 0.46 |  | 
ALLESSLRQAQQNMDPKAAEEEEE [CCND1] | 5.28 ± 0.29 | 5.42 ± 0.25 |  | 
RVKFRRQEANARERNRMHGLNDAL [NEUROD6] | 3.37 ± 0.18 | 3.43 ± 0.34 |  | 
PDCGKAFVSRYKLMRHMATHSPQK [PLAGL1] | 2.88 ± 0.24 | 3 ± 0.22 |  | 
DKFIEDYLLPDTCFRMQINHAIDI [OAS1] | 2.59 ± 0.36 | 2.17 ± 0.44 |  | 
GTPMALIVISYIHVAAAVLRIRSV [OR3A1] | 3.16 ± 0.48 | 3.24 ± 0.074 |  | 
ESRDRPSCAPSASIPKLKLTRPVP [PWWP2B] | 4.26 ± 0.2 | 4.16 ± 0.14 |  | 
KKFYEAFSKNLKLGIHEDSTNRRR [HSP90AB1] | 3.39 ± 0.33 | 3.59 ± 0.51 |  | 

Sequence | protein stability index [1] | protein stability index [2] | protein stability index [3] | protein stability index [4]
YAPVGFCLLVLRLFLGIHVFLVSC [AUP1] | 3.14 ± 1 | 2.88 ± 0.35 |  | 
VLRAEHRGFQEENKALWENNKLKL [CBY2] | 3.83 ± 0.45 | 3.89 ± 0.28 |  | 
DSPENMMRHIRFLKNEVERLKKQL [CCDC6] | 4.18 ± 0.31 | 4.45 ± 0.35 |  | 
EELQNKILTATVDNANILLQIDNA [KRT17] | 4.03 ± 0.095 | 4.3 ± 0.053 |  | 
LQAESPPVDPDSQADTVHSNPELD [DNAAF3] | 5.7 ± 0.17 | 5.63 ± 0.27 |  | 
YGLRGPHKADSIQGTARTLSPVLE [TNXB] | 3.93 ± 0.36 | 3.84 ± 0.14 |  | 
LQELKKLKNSNYESIQQTARSIAE [PPTC7] | 3.9 ± 0.51 | 3.76 ± 0.46 |  | 
TQTTNDGVCQSMCHDKYTKIFNDF [ZMYND11] | 3.05 ± 0.2 | 3.27 ± 0.12 |  | 
MKRDVQEGQARCLAHLGRHMEALE [C8orf76] | 3.66 ± 0.22 | 3.97 ± 0.35 |  | 
KDVAIDMMDSRTSQQLQLIDEQDS [STX5] | 5.4 ± 0.21 | 5.33 ± 0.4 |  | 
SGPEEPLLEEEEKQWGPLEREPVR [RTN2] | 5.51 ± 0.21 | 5.47 ± 0.34 |  | 
QKSVTRSCLLEEEEESGEEAAEAM [POP5] | 5.37 ± 0.42 | 5.47 ± 0.27 |  | 
LPEDDGLEQDLQQVMVSGPNLNET [ARFIP2] | 5.32 ± 0.32 | 5.43 ± 0.13 |  | 
KAEPRLPDRVYIHPDSPATGAHWM [TBX6] | 3.09 ± 0.12 | 3.23 ± 0.35 |  | 
AFHVRRTNRVKECLAKGTFSDVTF [RHOBTB2] | 2.57 ± 0.24 | 2.78 ± 0.4 |  | 
TACAVIILTIICYLGLPRLEFYRY [SLC29A1] | 3.04 ± 0.18 | 3.1 ± 0.13 |  | 
AAARGGQCPGLGPAPTPTPPGRLG [ZBED3] | 4.36 ± 0.24 | 4.63 ± 0.34 |  | 
HLYIYSIHSIPKGTEITIAFDFDY [KMT2E] | 3.39 ± 0.45 | 3.08 ± 0.33 |  | 
LPKVLQKYWCVTATRVAPERLFGS [ZBED1] | 2.47 ± 0.65 | 2.2 ± 0.21 |  | 
YIKVDWQRVEKDMKKAKEQLKIRK [FUNDC2] | 2.46 ± 0.61 | 2.94 ± 0.74 |  | 
FPEALDELPLPPFLQPLDLTGKG [ANKRD9] |  |  | 3.43 ± 0.22 | 3.52 ± 0.12
SLEQANRSLQLRIQELELQAQIHG [TFE3] | 3.51 ± 0.33 | 3.52 ± 0.19 |  | 
AKQLQAVKRKIRDESLCPQHHEAL [TRIM39] | 3.99 ± 0.2 | 3.97 ± 0.19 |  | 

Sequence | protein stability index [1] | protein stability index [2] | protein stability index [3] | protein stability index [4]
LHAAAAGGNVECIKLLQSSGADFH [ANKRD44] | 3.37 ± 0.091 | 3.46 ± 0.22 |  | 
VKPENFLIGRPGNKTQQVIHIIDF [CSNK1G3] | 2.4 ± 0.72 | 2.5 ± 0.34 |  | 
RNPVSLVVTRLVILGSGEEGPQVG [ADAMTS4] | 2.83 ± 0.2 |  |  | 
LGLETLKITDFQLHASTVKRYGLG [CPXM2] | 2.61 ± 0.52 | 2.46 ± 0.12 |  | 
RDSAYQSITHYRPVSASRSSLDLS [EMD] | 3.41 ± 0.18 | 3.58 ± 0.22 |  | 
PEARSRDATPPVSPINMEDQERIK [JUNB] | 5.37 ± 0.38 | 5.42 ± 0.33 |  | 
FNIAGTVVKYRRPMDVYETGIEYI [ADAMTSL2] | 2.16 ± 0.33 | 1.8 ± 0.046 |  | 
LQMAVLVEKQADTLNVIELNVQKT [STX11] | 2.59 ± 0.22 | 2.67 ± 0.26 |  | 
ALVKEREKQLAKKEQSKELQMKLE [FAM50A] | 4.87 ± 0.076 | 4.64 ± 0.37 |  | 
GLSSVSPSHLLLPPDTVSRTGLEK [SPDEF] | 4.52 ± 0.23 | 4.33 ± 0.2 |  | 
TDLDAVRTPEPLEEFPKREDQEGS [MYBL2] | 5.43 ± 0.11 | 5.52 ± 0.21 |  | 
SSSRDTDWVVVKEPVIKVAAIDNG [PI4K2A] | 4.25 ± 0.1 | 4 ± 0.11 |  | 
SLSDLEIQASAGVISKKAKVKVPQ [ZNF75A] | 4.44 ± 0.21 | 4.55 ± 0.14 |  | 
SQSILPLEHGSIYIPSSYVDSHHE [ESR2] | 3.96 ± 0.19 | 3.95 ± 0.17 |  | 
QLSMLPHLADLVSYSIQKVIGFAK [VDR] | 2.28 ± 0.2 | 2.48 ± 0.5 |  | 
FDLCDRTFSLKTVLMIAIQLISRM [CSNK1G3] | 2.89 ± 0.21 | 2.54 ± 0.46 |  | 
PSSYNCSQSILPLEHGSIYIPSSY [ESR2] | 2.17 ± 0.2 | 2.26 ± 0.26 |  | 
SSPRGMVRVCDLLLKKKPPQQQHH [ANKRD17] | 3.2 ± 0.23 | 3.28 ± 0.13 |  | 
AQDLMDGLPPGDSNQLAWFDTDL [CTNNB1] |  |  | 5.29 ± 0.094 | 5.09 ± 0.081
DPHSGHFVALKSVRVPNGGGGGGG [CDK4] | 4.01 ± 0.12 | 3.87 ± 0.33 |  | 
YFTKSGFHPDPRQKALYRRLATVH [CLPTM1] | 2.12 ± 0.41 | 2.35 ± 0.22 |  | 
VLSSTPDHSFSLELGSEVDITEGD [ATF4] | 5.32 ± 0.43 | 5.44 ± 0.11 |  | 
ICAAAGRMGATMAAINSIYSNTDA [GLT8D2] | 2.26 ± 0.43 | 2.2 ± 0.34 |  | 

Sequence | protein stability index [1] | protein stability index [2] | protein stability index [3] | protein stability index [4]
YCLLSDHGCEYSCVNMDRSFACQC [MATN2] | 2.81 ± 0.54 | 2.95 ± 0.59 |  | 
EHERAHRGEKPHGCSLCGKAFYKR [ZNF649] | 2.79 ± 0.11 | 3.45 ± 0.59 |  | 
FLCAAGDAGEESRVQVLKNEVRRG [TIAF1] | 4.18 ± 0.31 | 4.22 ± 0.11 |  | 
ELVHFLLLKYRAREPVTKAEMLGS [MAGEA3] | 2.54 ± 0.63 | 2.73 ± 0.92 |  | 
RAFLQTYSHEVSLTADSRKSHLIF [PCDHGA10] | 2.2 ± 0.34 | 2.08 ± 0.24 |  | 
ETRQKKLEVAMEEEGLADEEKKLR [STK38L] | 5.51 ± 0.18 | 5.6 ± 0.21 |  | 
SYFDRGAKGGSRLCTPEGWFSCQG [DFFB] | 2.46 ± 0.14 | 2.6 ± 0.18 |  | 
HTTGPTGSAPNSPMALLTIGSSSE [TFE3] | 4.53 ± 0.12 | 4.54 ± 0.23 |  | 
EECIPEHMVRESKIMEAESQKATR [FAN1] | 5.12 ± 0.77 | 4.72 ± 1.2 |  | 
IVISYIHVAAAVLRIRSVEGRKKA [OR3A1] | 2.37 ± 0.6 | 2.05 ± 0.21 |  | 
NNDCRIYVGNLPPDIRTKDIEDVF [SRSF1] | 3.09 ± 0.31 | 3.3 ± 0.37 |  | 
PLVLSYIDLSAWCYYCQAYVHHQA [HDAC6] | 2.97 ± 0.81 | 3.27 ± 0.49 |  | 
HSRFVELSEAYRVLSREQSRRSYD [DNAJC4] | 3.54 ± 0.23 | 3.7 ± 0.14 |  | 
ITYQPAASTKMCEQALGKGCGADS [PLK2] | 4.06 ± 0.36 | 4.44 ± 0.24 |  | 
FLLVLAVVAGDTVSTGSTDNSPTS [ADAMTSL2] | 2.5 ± 0.45 | 2.28 ± 0.43 |  | 
CFVLGFFYPVMLILFLVIGGMLNF [SOAT2] | 3.27 ± 0.52 | 3.53 ± 0.61 |  | 
TELVLSDCMLSEEGATLLLRGLCA [LRRC45] | 2.32 ± 0.3 | 2.32 ± 0.24 |  | 
ATADFADVADDFENYHKLRRSSSK [NETO1] | 4.99 ± 0.096 | 5.196 ± 0.05 |  | 
EFTIRDLQRLGELQSELAGVADFS [INTS4] | 3.3 ± 0.17 | 3.42 ± 0.48 |  | 
WYLKEEDHYQRVKREREKEDIALN [RHOBTB1] | 3.94 ± 0.18 | 3.955 ± 0.027 |  | 
